In the RNAGym collection of RNA variant scans (doi:10.7554/elife.80360):

B1: Hairpin Ribozyme (parent)
chain: GUCCUCUUUCACGUGCGCGUGAAAGAGAGAAGUGAACCAGAGAAACACACGUUGUGGUAUAUUACCUGGUA

Variants of: B1
Assay: self-cleavage, relative activity (ratio to wild type); higher = more cleavage; co-transcriptional

Row | Variant | self-cleavage
1 | GUCCUCUUUCACGUGCGCGUGUAAGAGAGAAGUGAACCAGAGCAACACACGUUGUGGUAUAUUACCUGGUA | 0.178
2 | GUCCUCUUUCACGUGCGCGUGUAAGAGAGAAGUGAACCAGAGUAACACACGUUGUGGUAUAUUACCUGGUA | 0.136
3 | GUCCUCUUUCACGUGCGCGUGUAAGAGAGAAGUGAAGCAGAGAAACACACGUUGUGGUAUAUUACCUGGUA | 0.339
4 | GUCCUCUUUCACGUGCGCGUGGAAGAGAGAAGUGAACCAGAGAAACACACGUUGCGGUAUAUUACCUGGUA | 0.294
5 | GUCCUCUUUCACGUGCGCGUGUAAGAGAGAAGUGAACCAGAGAAACACACUUUGUGGUAUAUUACCUGGUA | 0.761
6 | GUCCUCUUUCACGUGCGCGUGUAAGAGAGAAGUGAACCAGAGAAACACACCUUGUGGUAUAUUACCUGGUA | 0.607
7 | GUCCUCUUUCACGUGCGCGUGGAAAAGAGAAGUGAACCAGAGAAACACACGUUGUGGUAUAUUACCUGGUA | 0.623
8 | GUCCUCUUUCACGUGCGCGUGGAAUAGAGAAGUGAACCAGAGAAACACACGUUGUGGUAUAUUACCUGGUA | 0.595
9 | GUCCUCUUUCACGUGCGCGUGUAAGAGAGAAGCGAACCAGAGAAACACACGUUGUGGUAUAUUACCUGGUA | 0.235
10 | GUCCUCUUUCACGUGCGCGUGACAGAGUGAAGUGAACCAGAGAAACACACGUUGUGGUAUAUUACCUGGUA | 0.501
11 | GUCCUCUUUCACGUGCGCGUGGAAGAGAGAAGUGAACCAGAGAAACGCACGUUGUGGUAUAUUACCUGGUA | 0.135
12 | GUCCUCUUUCACGUGCGCGUGGAAGAGAGAAGUGAACCAGAGAAACACACGUUUUGGUAUAUUACCUGGUA | 0.423
13 | GUCCUCUUUCACGUGCGCGUGACAGAGAGAGGUGAACCAGAGAAACACACGUUGUGGUAUAUUACCUGGUA | 0.696
14 | GUCCUCUUUCACGUGCGCGUGUAAGAGAGAAGUGAACGAGAGAAACACACGUUGUGGUAUAUUACCUGGUA | 0.184
15 | GUCCUCUUUCACGUGCGCGUGUAAGAGAGAAGUGAACCAGAGAAACACACGUUGUGGUAUAUAACCUGGUA | 0.155
16 | GUCCUCUUUCACGUGCGCGUGUAAGAGAGAAGUGAACCAGAGAAACACACGUUGUGGUAUAUUACCUGAUA | 0.42
17 | GUCCUCUUUCACGUGCGCGUGGAAGAAAGAAGUGAACCAGAGAAACACACGUUGUGGUAUAUUACCUGGUA | 0.522
18 | GUCCUCUUUCACGUGCGCGUGGAAGAGAGAAGUGAACCAGAGAAACACACGAUGUGGUAUAUUACCUGGUA | 0.853
19 | GUCCUCUUUCACGUGCGCGUGGAAGAGAGAAGUGAACCAGAGAAACACACGUUGUGGUAUAUUGCCUGGUA | 0.565

Row | Variant | self-cleavage
20 | GUCCUCUUUCACGUGCGCGUGGAAGAGAGAAGUGAACCAGAGACACACACGUUGUGGUAUAUUACCUGGUA | 0.136
21 | GUCCUCUUUCACGUGCGCGUGGAAGAGAGAAGUGAACAAGAGAAACACACGUUGUGGUAUAUUACCUGGUA | 0.147
22 | GUCCUCUUUCACGUGCGCGUGGAAGAGAGAAGUGAACCAGAGAAACACACGUUGUAGUAUAUUACCUGGUA | 0.185
23 | GUCCUCUUUCACGUGCGCGUGGAAGAGAGAAGUGAACCAGAGAAACACACGUUGUUGUAUAUUACCUGGUA | 0.0693
24 | GUCCUCUUUCACGUGCGCGUGUAAGAGAGAAGUGAACCAGAGAAAUACACGUUGUGGUAUAUUACCUGGUA | 0.117
25 | GUCCUCUUUCACGUGCGCGUGUAAGAGAGAAGUGAACCAGAGAAACACACGGUGUGGUAUAUUACCUGGUA | 0.883
26 | GUCCUCUUUCACGUGCGCGUGUAAGAGAGAAGUGAACCAGAGAAACACACGCUGUGGUAUAUUACCUGGUA | 0.631
27 | GUCCUCUUUCACGUGCGCGUGUAAGAGAGAAGUGAACCAGAGAAACACACGUGGUGGUAUAUUACCUGGUA | 0.817
28 | GUCCUCUUUCACGUGCGCGUGGAAGAGAUAAGUGAACCAGAGAAACACACGUUGUGGUAUAUUACCUGGUA | 0.0873
29 | GUCCUCUUUCACGUGCGCGUGGAAGAGAAAAGUGAACCAGAGAAACACACGUUGUGGUAUAUUACCUGGUA | 0.121
30 | GUCCUCUUUCACGUGCGCGUGGAAGAGAGAAGUGAACCAGAGAAACAUACGUUGUGGUAUAUUACCUGGUA | 0.149
31 | GUCCUCUUUCACGUGCGCGUGUAAGAGAGACGUGAACCAGAGAAACACACGUUGUGGUAUAUUACCUGGUA | 0.0317
32 | GUCCUCUUUCACGUGCGCGUGUAAGAGAGCAGUGAACCAGAGAAACACACGUUGUGGUAUAUUACCUGGUA | 0.223
33 | GUCCUCUUUCACGUGCGCGUGGAAGAGAGAAGUGAACCAGAGAAACACACGUUGUGGUAUAUUAGCUGGUA | 0.249
34 | GUCCUCUUUCACGUGCGCGUGGAAGAGAGAAGUGAACCAGAGAAACACACGUUGUGGCAUAUUACCUGGUA | 0.954
35 | GUCCUCUUUCACGUGCGCGUGGAAGAGAGAAGUGAACCAGAGAAACACACGUUGUGGGAUAUUACCUGGUA | 0.528
36 | GUCCUCUUUCACGUGCGCGUGUAAGAGCGAAGUGAACCAGAGAAACACACGUUGUGGUAUAUUACCUGGUA | 0.561
37 | GUCCUCUUUCACGUGCGCGUGUAAGAGUGAAGUGAACCAGAGAAACACACGUUGUGGUAUAUUACCUGGUA | 0.67
38 | GUCCUCUUUCACGUGCGCGUGGAAGAGAGAAGUGAACCAGAGAAACACACGUUGUGGUAUUUUACCUGGUA | 0.159
